Here are results for 8 molecules from US20250188166A1 (BRIGHT PEAK THERAPEUTICS, published 2025).

Residue numbers refer to the chain shown, from its start. Numbers in names are those of the source.

The target in assay [1] is T1, IL-18R on HEK-Blue IL18R reporter cells (UniProt Q13478 19-541; O95256 20-599).
T1 sequence (looked up) 1: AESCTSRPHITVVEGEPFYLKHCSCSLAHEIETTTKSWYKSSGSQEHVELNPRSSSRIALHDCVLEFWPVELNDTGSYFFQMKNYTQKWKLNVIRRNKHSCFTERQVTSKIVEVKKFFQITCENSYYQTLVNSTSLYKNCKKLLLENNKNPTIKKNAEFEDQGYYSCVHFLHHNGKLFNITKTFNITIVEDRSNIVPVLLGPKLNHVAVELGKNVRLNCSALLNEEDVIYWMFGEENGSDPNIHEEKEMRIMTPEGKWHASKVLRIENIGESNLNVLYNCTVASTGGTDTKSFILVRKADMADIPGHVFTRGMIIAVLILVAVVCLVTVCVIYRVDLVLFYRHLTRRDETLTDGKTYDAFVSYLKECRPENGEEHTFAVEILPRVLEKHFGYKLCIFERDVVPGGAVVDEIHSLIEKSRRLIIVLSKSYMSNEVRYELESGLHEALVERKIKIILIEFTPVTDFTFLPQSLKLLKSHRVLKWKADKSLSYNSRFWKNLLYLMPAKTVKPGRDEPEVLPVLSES
T1 sequence (looked up) 2: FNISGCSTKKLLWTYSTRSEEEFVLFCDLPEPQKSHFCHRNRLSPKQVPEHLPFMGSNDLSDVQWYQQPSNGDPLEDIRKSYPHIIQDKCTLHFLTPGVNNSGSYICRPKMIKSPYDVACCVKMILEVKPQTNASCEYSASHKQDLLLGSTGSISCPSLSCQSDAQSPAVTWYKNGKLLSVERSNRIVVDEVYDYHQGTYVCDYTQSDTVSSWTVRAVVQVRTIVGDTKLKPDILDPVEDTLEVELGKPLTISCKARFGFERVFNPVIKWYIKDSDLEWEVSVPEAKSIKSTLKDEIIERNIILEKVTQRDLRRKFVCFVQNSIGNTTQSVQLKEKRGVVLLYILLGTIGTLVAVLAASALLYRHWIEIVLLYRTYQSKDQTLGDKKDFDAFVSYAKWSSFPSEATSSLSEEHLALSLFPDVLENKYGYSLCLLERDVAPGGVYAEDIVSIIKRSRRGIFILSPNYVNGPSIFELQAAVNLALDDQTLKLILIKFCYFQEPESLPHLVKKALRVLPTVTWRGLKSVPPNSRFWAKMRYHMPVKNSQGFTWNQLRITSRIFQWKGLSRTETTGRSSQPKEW
As to the kind of experiment: cell-based or functional assay.

Assay [2] concerns the target T1, IL-18R on HEK-Blue IL18R reporter cells. As to the kind of experiment: cell-based or functional assay. This is another data set of the same source.
Assay [3] shares this target. The experiment in a line: cell-based or functional assay. The source holds these as a separate data set.
For another assay, the target named is T2, His-tagged human IL-18BP (human, UniProt O95998 31-194, limits assumed).
T2 construct: also called human IL-18BP-His
T2 sequence (looked up): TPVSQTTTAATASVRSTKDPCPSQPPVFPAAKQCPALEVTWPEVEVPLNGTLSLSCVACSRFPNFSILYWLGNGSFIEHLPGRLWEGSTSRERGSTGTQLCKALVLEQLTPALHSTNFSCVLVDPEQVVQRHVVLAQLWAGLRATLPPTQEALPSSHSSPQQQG
The experiment in a line: AlphaLISA of free IL-18BP: IL-18 analyte titrated in the presence of 5 ng/ml His-tagged human IL-18BP; loss of free IL-18BP signal. In general terms: Bead proximity is the source of the signal in Alpha formats.

Assay [4] addresses T3, Biotinylated Recombinant Human PD-1/CD279-Fc Chimera (human, UniProt Q15116 25-167, biotinylated).
T3 construct: Bought (Biolegend #789406); also called recombinant biotinylated human PD-1
As to the kind of experiment: ELISA; antibody coated, biotinylated human PD-1-Fc titrated. As to the method:
(§1) The interaction of the unmodified antibodies and corresponding IL-18 immunocytokines with relevant immune cell associated antigen are measured by ELISA assay. For these studies, Corning high-binding half-area plates (Fisher Scientific, Reinach, Switzerland) are coated overnight at 4° C. with 25 μl of unmodified antibodies corresponding IL-18 immunocytokines at 5 μg/ml in PBS. Plates are then washed four times with 100 μl of PBS-0.02% Tween20. Plate surfaces are blocked with 25 μl of PBS-0.02% Tween20-1% BSA at 37° C. during 1h. […] Plates are then washed four times with 100 μl of PBS-0.02% Tween20. Twenty-five microliters of Streptavidin-Horseradish peroxidase (#RABHRP3, Merck, Buchs, Switzerland) diluted at 1:500 into PBS-0.02%Tween20-0.1% BSA are added to each well and incubated at Room Temperature during 30 min. Plates are then washed four times with 100 μl of PBS-0.02% Tween20. Fifty microliters of TMB substrate reagent (#CL07, Merck, Buchs, Switzerland) are added to each well and incubated at 37° C. during 5 min. After 5 min at 37° C., Horseradish peroxidase reaction is stopped by adding 50 μl/well of 0.5M H2SO₄ stop solution. ELISA signal is then measured at 450 nm on an ENSPIRE® plate reader from Perkin Elmer (Schwerzenbach, Switzerland).
For orientation: An ELISA detects its analyte on a solid surface through an enzyme-linked reagent.

The target in assay [5] is T4, recombinant biotinylated human FcRn (human, UniProt P55899 24-297; P61769 21-119, limits assumed, biotinylated).
T4 construct: Kit reagent; also called human neonatal Fc receptor
The experiment in a line: AlphaLISA competition at pH 6; competitor human IgG acceptor beads. As to the method: The interaction of the unmodified and of conjugated anti-PD1 antibodies with the human neonatal Fc receptor (FcRn) at pH 6 was measured using the AlphaLISA® Human FcRn Binding Kit (AL3095C) from Perkin Elmer (Schwerzenbach, Switzerland).
After 90 min at 23° C. in the dark, AlphaLISA® signal was measured on an EnSpire plate reader (Excitation at 680 nm, Emission at 615 nm) from Perkin Elmer (Schwerzenbach, Switzerland).

Assay [6] deals with T3, Biotinylated Recombinant Human …. The experiment in a line: ELISA: fusion immunocytokine coated on the plate (5 µg/ml), biotinylated human PD-1-Fc titrated (x-axis, Concentration (nM)), streptavidin-HRP/TMB, 450 nm. As to the method: as §1
Assay [7] has as its target T4, recombinant biotinylated human FcRn. The experiment in a line: AlphaLISA competition at pH 6: test molecule titrated against human IgG acceptor beads for biotinylated human FcRn on streptavidin donor beads; normalized signal.
Assay [8] has the same target. As to the kind of experiment: AlphaLISA competition at pH 6: test antibody titrated against human IgG acceptor beads for biotinylated human FcRn on streptavidin donor beads; normalized signal.

B1: IL-18 polypeptide SEQ ID NO: 30 (E6K, V11I, C38A, K53A, T63A, C76A, C127A) (ligand)
chain: YFGKLKSKLSIIRNLNDQVLFIDQGNRPLFEDMTDSDARDNAPRTIFIISMYADSQPRGMAVAISVKCEKISTLSAENKIISFKEMNPPDNIKDTKSDIIFFQRSVPGHDNKMQFESSSYEGYFLAAEKERDLFKLILKKEDELGDRSIMFTVQNED
notes: also called C086; IL-18 variant
As a reminder, the EC50 (read off the curve) is the concentration at which the effect is half-maximal. In the case of B1, the “EC50, HEK-Blue IL18R SEAP reporter” value in [1] is 0.034 pM. Also, the “IL-18R Hek Blue assay EC50” value in assay [2] is 0.057 pM. Besides, in assay [3], the “EC50 (read off the curve)” value is around 0.05 pM. In addition, in the assay with His-tagged human IL-18BP, the “IC50 (read off the curve)” value is around 9000 pM.

B2: IL-18 polypeptide SEQ ID NO: 60 (E6K, C38Q, K53A) (ligand)
chain: B1 chain with I11V, A38Q, A63T, A76C, A127C
On to B2, for which, in [1], the “EC50, HEK-Blue IL18R SEAP reporter” value worked out at 0.203 pM.

B3: IL-18 polypeptide SEQ ID NO: 62 (E6K, C38A, K53A, C127A) (ligand)
chain: B1 chain with I11V, A63T, A76C
Consider B3, for which the “EC50, HEK-Blue IL18R SEAP reporter” value in assay [1] was 0.17 pM.

B4: IL-18 polypeptide C141 (SEQ ID NO: 71) (ligand)
chain: GYFGKLKSKLSIIRNLNDQVLFIDQGNRPLFEDMTDSDARDNAPRTIFIISMYADSQPRGMAVAISVKCEKISTLSAENKIISFKEMNPPDNIKDTKSDIIFFQRSVPGHDNKMQFESSSYEGYFLAAEKERDLFKLILKKEDELGDRSIMFTVQNED
Take B4: in assay [1], the “EC50, HEK-Blue IL18R SEAP reporter” value came out at 1.68 pM.

B5: IL-18 polypeptide C192 (SEQ ID NO: 70) (ligand)
chain: B4 chain with M52G
On to B5, for which the “EC50, HEK-Blue IL18R SEAP reporter” value in [1] was determined as 14 pM.

B6: CMP2001 (other)
heavy 1: QVQLVQSGAEVKKPGASVKVSCKASGYTFTSYYMYWVRQAPGQGLEWMGGVNPSNGGTNFNEKFKSRVTITADKSTSTAYMELSSLRSEDTAVYYCARRDYRYDMGFDYWGQGTTVTVSSASTKGPSVFPLAPCSRSTSESTAALGCLVKDYFPEPVTVSWNSGALTSGVHTFPAVLQSSGLYSLSSVVTVPSSSLGTKTYTCNVDHKPSNTKVDKRVESKYGPPCPPCPAPEFLGGPSVFLFPPKPKDTLMISRTPEVTCVVVDVSQEDPEVQFNWYVDGVEVHNAKTKPREEQFNSTYRVVSVLTVLHQDWLNGKEYKCKVSNKGLPSSIEKTISKAKGQPREPQVYTLPPSQEEMTKNQVSLWCLVKGFYPSDIAVEWESNGQPENNYKTTPPVLDSDGSFFLYSRLTVDKSRWQEGNVFSCSVMHEALHNRFTQKSLSLSLGK
heavy 2: QVQLVQSGAEVKKPGASVKVSCKASGYTFTSYYMYWVRQAPGQGLEWMGGVNPSNGGTNFNEKFKSRVTITADKSTSTAYMELSSLRSEDTAVYYCARRDYRYDMGFDYWGQGTTVTVSSASTKGPSVFPLAPCSRSTSESTAALGCLVKDYFPEPVTVSWNSGALTSGVHTFPAVLQSSGLYSLSSVVTVPSSSLGTKTYTCNVDHKPSNTKVDKRVESKYGPPCPPCPAPEFLGGPSVFLFPPKPKDTLMISRTPEVTCVVVDVSQEDPEVQFNWYVDGVEVHNAKTKPREEQFNSTYRVVSVLTVLHQDWLNGKEYKCKVSNKGLPSSIEKTISKAKGQPREPQVYTLPPSQEEMTKNQVSLSCAVKGFYPSDIAVEWESNGQPENNYKTTPPVLDSDGSFFLVSRLTVDKSRWQEGNVFSCSVMHEALHNHYTQKSLSLSLGKGGGGSGGGGSGGGGSYFGKLKSKLSIIRNLNDQVLFIDQGNRPLFEDMTDSDARDNAPRTIFIISMYADSQPRGMAVAISVKCEKISTLSAENKIISFKEMNPPDNIKDTKSDIIFFQRSVPGHDNKMQFESSSYEGYFLAAEKERDLFKLILKKEDELGDRSIMFTVQNED
light: EIVLTQSPATLSLSPGERATISCRASKGVSTSGYSYLHWYQQKPGQAPRLLIYLASYLESGVPARFSGSGSGTDFTLTISSLEPEDFATYYCQHSRELPLTFGTGTKVEIKRTVAAPSVFIFPPSDEQLKSGTASVVCLLNNFYPREAKVQWKVDNALQSGNSQESVTEQDSKDSTYSLSSTLTLSKADYEKHKVYACEVTHQGLSSPVTKSFNRGEC
notes: expressed in CHO K1 cells
The Kd is the free concentration of one partner at which half of the binding sites on the other are occupied at equilibrium, for simple one-to-one binding. B6: the “IL-18R Hek Blue assay EC50” value in assay [2] is above 200 pM. In addition, the Kd stood at 38.9 pM in assay [4] and 12500 pM in assay [5]. For the same molecule, the concentration giving a half-maximal response (EC50 (read off the curve)) in assay [6] is around 30 pM. In [7], the “IC50 (read off the curve)” value was around 10000 pM.

B7: Pembrolizumab/Keytruda (antibody, human IgG4 S228P, kappa)
heavy: not shown
light: B6 light with I21L, T89V, E97D, T104G
notes: also called Lambrolizumab; MK-3475
For B7, in assay [8], the “IC50 (read off the curve)” value is around 8000 pM.

B8: IL-18 polypeptide C140 (SEQ ID NO: 72) (ligand)
chain: GGGGYFGKLKSKLSIIRNLNDQVLFIDQGNRPLFEDMTDSDARDNAPRTIFIISMYADSQPRGMAVAISVKCEKISTLSAENKIISFKEMNPPDNIKDTKSDIIFFQRSVPGHDNKMQFESSSYEGYFLAAEKERDLFKLILKKEDELGDRSIMFTVQNED
Turning to B8, the “EC50, HEK-Blue IL18R SEAP reporter” value in [1] was determined as 2.5 pM.
